Test results: patent WO2014161570A1
Read-outs that look alike come from different tables or passages of the source.

Tests used:
Assay in all cases: ELISA, IL-17A coated on plate, relative binding (Table 6a)
[1] = target: Cynomolgous IL-17A (cynomolgous)
[2] = target: T1, Human IL-17A (human) (UniProt Q16552)
T1 sequence: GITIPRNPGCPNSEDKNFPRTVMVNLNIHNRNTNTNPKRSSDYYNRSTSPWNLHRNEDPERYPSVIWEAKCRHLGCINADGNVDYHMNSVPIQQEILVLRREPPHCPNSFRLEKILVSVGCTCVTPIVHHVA

[3] = target: T1, Human IL-17A (human); remark: listed apart in the source

eBio64CAP17 (antibody)
Relative binding to cynomolgous IL-17A in % [1]: 124% | Relative binding to human IL-17A in % [2]: 122%

B1: <IL17> 9C6-2B6 (mouse clone) (antibody, V domains shown)
VH: QVQLKESGPGLVAPSQSLSITCTVSGFSLDSYGVHWVRQPPGKGLEWLVVIWSDGTTTYNSALKSRLSITKDNSKSQVFLKMNSLQTDDTAIYYCARDTHYRLYYYAMDYWGQGTSVTVSS
VL: DVVMTQTPLSLPVSLGDQASISCRSSQSLVHSNGDTYFHWYLQKPGQSPKLLIYKVSNRFSGVPDRFSGSGSGTDFTLKINRVEAEDLGVYFCSQTTHAPFTFGSGTKLEIK
Relative binding to human IL-17A in % [3]: 127%
